Molecular target: OcwA (Outer cell-wall protein A), nonaheme cytochrome TherJR_2595 from Thermincola potens JR (Thermincola potens JR)
Assay: SEC

stoichiometry N: 2
Substance: OcwA (Outer cell-wall protein A), nonaheme cytochrome TherJR_2595 from Thermincola potens JR (natural protein)

Reference: publication doi:10.1101/641308
